We go through 13 molecules from PMC5192466, “Kunitz-Type Peptide HCRG21 from the Sea Anemone Heteractis crispa Is a Full Antagonist of the TRPV1 Receptor” (Marine Drugs, 2016).

Where two headings read alike, the source gives them in different places. Where no end group is shown, it is not given here.

Test [1] has as its target trypsin. The settings on record: cited from earlier work. An excerpt: The HCGS peptide subfamily and their evolutionary relationships were described in details previously. […] It is shown, that the first known H. crispa analgesic Kunitz-type peptides, APHC1–APHC3, have a Thr residue (instead of Lys or Arg) at position P1, similar to other representatives of the analgesic cluster (Figure 1a,b).

For test [2], the target named is α-chymotrypsin. Briefly: enzyme inhibition kinetics (Dixon method); trypsin with BAPNA, α-chymotrypsin with BTEE as substrate; substrate concentrations 133 and 65 mM; both enzymes 215 nM; peptide 0 up to 3.2 mM; three parallel experiments.
Test [3] concerns the target T1, TRPV1 (Rattus norvegicus, UniProt O35433).
T1 construct: expressed in transfected cells; host or cells: Xenopus laevis oocytes injected with cRNA
The note with it: cited from earlier work. An excerpt: They are the first sea anemone peptide characterized as TRPV1 modulators. […] It belongs to the family of polymodal TRP channels, serving as a molecular cellular sensor, which is activated by a wide spectrum of physical and chemical stimuli. They have diverse biophysical properties such as cation selectivity, specific mechanisms of activation, and they play the main role in ma ... || To control the expression level of the TRPV1 channels, experiments were initiated with a first activation of TRPV1 with 1 μM capsaicin (CAP). […] This activation gives an inward non-selective cation current. […] Before application of HCRG21, cells are washed with ND96 to remove any presence of capsazepine. […] Similarly ... || (+ 3 further places)

Test [4] concerns the target T1, TRPV1. Nature of the test: cell-based. How it is done: To control the expression level of the TRPV1 channels, experiments were initiated with a first activation of TRPV1 with 1 μM capsaicin (CAP). […] This activation gives an inward non-selective cation current. […] Before application of HCRG21, cells are washed with ND96 to remove any presence of […]. […] However, when rHCRG21 was co-applied together with the agonist capsaicin, a reduction of the current was observed (Figure 5b). […] A concentration–response curve was constructed in order to assess the concentration dependence of the rHCRG21 induced effect. The IC50 value yielded 6.9 ± 0.4 μM (Figure 5c).
Figure 5 Activity profile of rHCRG21 (10 μM) on the TRPV1 receptor. The figures show the results of one representative experiment. Whole-cell current traces in control and rHCRG21 conditions are shown. […] All data represent the average of at least three independent experiments (n ≥ 3) and are presented as mean ± standard error; (c) Concentration–response curve for rHCRG21 on TRPV1 receptor.
For the expression of rKv1.1, hKv1.3, rKv1.4, rKv1.5, rKv1.6, Shaker IR, hERG, and TRPV1 in Xenopus oocytes, the linearized plasmids were transcribed using the T7 or SP6 mMESSAGE-mMACHINE transcription kit (Ambion, Austin, TX, USA). The harvesting of stage V–VI oocytes from anaesthetized female Xenopus laevis frog was previously described. Oocytes were injected with 50 nL of cRNA at a concentration of 1 ng/nL using a micro-injector (Drummond Scientific, Broomall, PA, USA). The oocytes were incubated in a solution containing (in mM): NaCl, 96; KCl, 2; CaCl2, 1.8; MgCl2, 2 and HEPES, 5 (pH 7.4), supplemented with 50 mg/L gentamicin sulfate.
Two-electrode voltage-clamp recordings were performed at room temperature (18–22 °C) using a Geneclamp 500 amplifier (Molecular Devices, Sunnyvale, CA, USA) controlled by a pClamp data acquisition system (Axon Instruments, Foster City, CA, USA). Whole cell currents from oocytes were recorded 1–4 days after injection. Bath solution composition was ND96 (in mM): NaCl, 96; KCl, 2; CaCl2, 1.8; MgCl2, 2, and HEPES, 5 (pH 7.4). Voltage and current electrodes were filled with 3 M KCl. Resistances of both electrodes were kept between 0.8 and 1.5 MΩ. The elicited currents were filtered and sampled at, respectively, 1 kHz and 10 kHz (for potassium currents) and at, respectively, 0.2 kHz and 0.5 kHz (for TRPV1 currents), using a four-pole low-pass Bessel filter. Leak subtraction was performed using a –P/4 protocol. KV1.1–KV1.6 and Shaker currents were evoked by 500 ms depolarizations to 0 mV followed by a 500 ms pulse to −50 mV, from a holding potential of −90 mV. Current traces of hERG channels were elicited by applying a +40 mV prepulse for 2 s followed by a step to −120 mV for 2 s. TRPV1 currents were measured in ND96 solution using a protocol of −90 mV during 400 s. The recording chamber was perfused at a rate of 2 mL·min^−1 with a ND96 solution. As previously described, capsaicin (2 μM) was used as an agonist and capsazepine (10 μM) as an antagonist of TRPV1. Capsaicin and capsazepine were purchased from Sigma. All data represent at least 3 independent experiments (n ≥ 3) in which independent experiments represent experiments on different cells expressing TRPV1 channel and are presented as mean ± standard error.

Test [5] has as its target α-chymotrypsin (Bos taurus, UniProt P00766). The note with it: cited from earlier work. The source says:
The HCGS peptide subfamily and their evolutionary relationships were described in details previously. […] Moreo ...

Test [6] concerns voltage-gated potassium channels. The note with it: cited from earlier work. An excerpt: For many potent Kv channel blocking toxins, such as α-DTX, DTX-K, and DTX-I, isolated from the snake Dendroaspis polylepis, it has been well established that mainly a series of positive charged residues (for example, R3, R4, K5, K37, K39, K46, and K50 in α-DTX) are crucial for interaction with the Kv channel. […] Although there are many positively charged residues present in the sequence of HCRG21, they do differ in position with known Kv1.1–Kv1.6 blockers, such as α-DTX, DTX-K, DTX-I, AsKC1, and ShPI-1 (Figure 1c). […] Noteworthy, several positively charged residues are conserved between HCRG21 and ShPI-1 (in positions 8, 19, 28, 51, and 55, Figure 1c). Therefore, other Kv channel isoforms should be tested for their sensitivity to HCRG21 as ...

The test system of test [7] is serine, cysteine and aspartate proteases. The note with it: cited from earlier work. An excerpt: To date, a number of highly homologous native serine protease inhibitors has been isolated from different species: Anemonia sulcata, Heteractis crispa, Anthopleura aff. xanthogrammica, Anthopleura fuscoviridis, Stichodactyla helianthus, and Stichodactyla haddoni.
Test [8] concerns the target transient receptor potential family member vanilloid 1 (TRPV1) (UniProt O35433).
In test [9] the target is trypsin. Nature of the test: enzyme inhibition kinetics (Dixon method); trypsin with BAPNA, α-chymotrypsin with BTEE as substrate; substrate concentrations 133 and 65 mM; both enzymes 215 nM; peptide 0 up to 3.2 mM; three parallel experiments.

T1 sequence (O35433 whole entry): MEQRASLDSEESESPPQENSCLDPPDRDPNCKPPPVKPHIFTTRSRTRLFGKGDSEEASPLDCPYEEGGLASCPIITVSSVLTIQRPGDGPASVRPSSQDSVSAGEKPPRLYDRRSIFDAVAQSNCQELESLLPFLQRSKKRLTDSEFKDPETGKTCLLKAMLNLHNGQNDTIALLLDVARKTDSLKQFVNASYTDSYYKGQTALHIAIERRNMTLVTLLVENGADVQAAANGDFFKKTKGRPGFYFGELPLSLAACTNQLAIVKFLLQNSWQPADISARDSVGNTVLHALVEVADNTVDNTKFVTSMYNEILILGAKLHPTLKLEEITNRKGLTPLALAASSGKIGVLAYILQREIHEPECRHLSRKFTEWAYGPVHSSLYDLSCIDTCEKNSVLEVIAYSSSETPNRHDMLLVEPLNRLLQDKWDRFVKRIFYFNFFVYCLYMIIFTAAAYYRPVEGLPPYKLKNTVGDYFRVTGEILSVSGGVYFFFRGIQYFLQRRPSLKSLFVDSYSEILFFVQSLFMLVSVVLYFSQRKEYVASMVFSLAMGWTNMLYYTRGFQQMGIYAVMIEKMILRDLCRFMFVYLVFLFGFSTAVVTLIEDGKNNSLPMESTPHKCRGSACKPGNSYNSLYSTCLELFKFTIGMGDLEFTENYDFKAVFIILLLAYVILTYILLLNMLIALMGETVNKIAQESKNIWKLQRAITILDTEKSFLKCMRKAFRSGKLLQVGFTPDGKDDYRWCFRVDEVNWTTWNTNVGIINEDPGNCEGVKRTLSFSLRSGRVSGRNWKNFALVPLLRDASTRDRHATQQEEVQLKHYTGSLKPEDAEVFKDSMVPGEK
Chain of transient receptor potential family member vanilloid 1 (TRPV1) (O35433 whole entry): as above

Take “AsKC1: kalicludine from Anemonia sulcata (UniProt Q9TWG0) (INKDCLLPMDVGRCRASHPRYYYNSSSKRCEKFIYGGCRGNANNFHTLEECEKVCGVR; ends and bridges not checked; cysteine pairing not given here; UniProt Q9TWG0 1-58, looked up)”: the inhibition constant Ki at trypsin [1] is under 0.0003 µM.
As to “AsKC2: kalicludine from Anemonia sulcata (UniProt Q9TWF9) (INKDCLLPMDVGRCRARHPRYYYNSSSRRCEKFIYGGCRGNANNFITKKECEKVCGVR; ends and bridges not checked; cysteine pairing not given here; UniProt Q9TWF9 1-58, looked up)”, the inhibition constant (Ki) on trypsin [1] is under 0.0003 µM.
“recombinant HCRG21, Kunitz-type peptide from the sea anemone Heteractis crispa (from UniProt P0DL86 1-56)” registered an inhibitory constant (Ki) with α-chymotrypsin [2] of 0.7 µM.
On to “APHC1: H. crispa analgesic Kunitz-type peptide (UniProt B2G331) (GSICLEPKVVGPCTAYFRRFYFDSETGKCTVFIYGGCEGNGNNFETLRACRAICRA; three disulfides (Kunitz fold)) [reference compound]”, for which the EC50 with TRPV1 [3] (read-out: EC50, decrease of capsaicin induced currents through TRPV1) was 0.054 ± 0.004 µM.
Consider `COc1cc(CNC(=O)CCCC/C=C/C(C)C)ccc1O` [capsaicin, reference compound], for which the “effect on TRPV1 (control agonist)” value on TRPV1 [4] is on record as “opens the channels”.
With “APHC1: H. crispa analgesic Kunitz-type peptide (UniProt B2G331)”, in the test with α-chymotrypsin [5], the inhibition constant (Ki) was 5 µM.
As for “AsKC3: Kunitz-type peptide from Anemonia sulcata (UniProt Q9TWF8) (INGDCELPKVVGRCRARFPRYYYNLSSRRCEKFIYGGCGGNANNFHTLEECEKVCGVRS; ends and bridges not checked; cysteine pairing not given here; UniProt Q9TWF8 1-59, looked up)”, on trypsin [1], the inhibition constant (Ki) was under 0.0003 µM.
For “APHC3: H. crispa analgesic Kunitz-type peptide (UniProt C0HJF3)”, the inhibition constant (Ki) with α-chymotrypsin [5] was 7 µM.
“SHPI-1: protease inhibitor from the sea anemone Stichodactyla helianthus (UniProt P31713) (SICSEPKKVGRCKGYFPRFYFDSETGKCTPFIYGGCGGNGNNFETLHQCRAICRA; UniProt P31713 1-55, looked up)”: the inhibitory constant (Ki) at trypsin [1] was 0.00011 µM; with α-chymotrypsin [5], 0.0023 µM. Also, the “binding to Kv1.1, Kv1.2, and Kv1.6 channels” value in test [6] was “binds with high affinity”. For the same molecule, the protease inhibitory specificity result in test [7] was “inhibits not only serine but also cysteine and aspartate proteases”.
Take “APHC2: H. crispa analgesic Kunitz-type peptide (UniProt C0HJF4)”: the inhibitory constant (Ki) with α-chymotrypsin [5] is 4.5 µM.
On to `Oc1cc2c(cc1O)CN(C(=S)NCCc1ccc(Cl)cc1)CCC2` [capsazepine, reference compound], for which, on TRPV1 [4], the “effect on capsaicin-activated TRPV1 (control antagonist)” value is given as “closes the channels allowing the current levels to return to zero”.

B1: recombinant HCRG21, Kunitz-type peptide from the sea anemone Heteractis crispa (peptide)
chain: RGICSEPKVVGPCTAYFRRFYFDSETGKCTPFIYGGCEGNGNNFETLRACRAICRA
In the case of B1, in test [8], the IC50 of the inhibition of the capsaicin-induced current through TRPV1 in X. laevis oocytes (two-electrode voltage clamp, peptide co-applied with capsaicin; concentration-response curve) came out at 6.9 µM. In addition, in the test with trypsin [9], the inhibition constant (Ki) was determined as 0.2 µM.

B2: DkTx: double-knot toxin from the Chinese bird spider Ornithoctonus huwena (peptide, UniProt P0CH43 1-79, looked up)
Tau-theraphotoxin-Hs1a: DCAKEGEVCSWGKKCCDLDNFYCPMEFIPHCKKYKPYVPVTTNCAKEGEVCGWGSKCCHGLDCPLAFIPYCEKYRGRND
Take B2: the “effect of DkTx on TRPV1 current” value with TRPV1 [3] (conformational change in the receptor upper pore region) is “enhances the ion current through the channel”. Besides, in the test with TRPV1 [3] (ref 48 (DkTx), ref 49 (VaTx1–VaTx3), ref 50 (BmP01)), the TRPV1 agonism entry is “agonists”.

What is called Ki is a measure of affinity in units of concentration, obtained from inhibition or displacement. The term EC50 denotes the concentration needed to bring the measured effect to its halfway point.
